The values below come from patent US20190282704A1.

Test [1] concerns the target wildtype feline IL-31 (Feline_IL31_wildtype) (feline).
Test [2] shares this target. Briefly: SPR (Biacore), immobilised IL-31, 1:1 fit. In general terms: Surface plasmon resonance follows binding to a sensor surface in real time, without labels.
In test [3] the target is canine IL-31 (Canine_IL31) (canine). Briefly: SPR (Biacore), immobilised IL-31, 1:1 fit.
canine IL-31 (Canine_IL31) (canine), sequence (chain, as listed by the source limits assumed, form in doubt): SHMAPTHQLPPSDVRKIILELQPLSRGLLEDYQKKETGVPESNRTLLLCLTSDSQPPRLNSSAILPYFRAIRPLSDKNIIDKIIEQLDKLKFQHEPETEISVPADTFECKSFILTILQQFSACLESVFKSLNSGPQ

wildtype feline IL-31 (Feline_IL31_wildtype) (feline), sequence (chain, as listed by the source limits assumed, form in doubt): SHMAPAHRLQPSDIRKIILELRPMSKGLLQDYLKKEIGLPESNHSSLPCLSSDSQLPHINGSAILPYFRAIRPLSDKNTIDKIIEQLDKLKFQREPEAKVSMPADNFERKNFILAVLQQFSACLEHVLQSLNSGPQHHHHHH

B1: Feline 11E12 1.2 (antibody, V domains shown)
VH: QVLLVQSGAEVKKPGASVKIFCKASGYSFTYYDINWLRQAPEQGLEWMGWIFPGDGGTKYNETFKGRLTLTADTSTNTVYMELSSLRSADTAMYYCARGGTSVIRDAMDYWGQGALVTVSS
VL: EVVLTQSSAFLSRTLKEKATITCRASESVDNYGISFMHWYQQKPNQAPKLLVKRASNLESGAPSRFSGSGSGTDFTLTISSPEPEDAATYYCQQSNKDPLTFGQGT
As to B1, in test [1], the IC50, inhibition of feline IL-31-induced STAT3 phosphorylation, canine DH82 cells is over 100 µg/mL and the IC50, inhibition of feline IL-31-induced STAT3 phosphorylation, feline FCWF4 cells is over 100 µg/mL.

B2: Feline 11E12 1.1 K46Q (antibody, V domains shown)
VH: QVLLVQSGAEVKKPGASVKIFCKASGYSFTYYDINWLRQAPEQGLEWMGWIFPGDGGTKYNETFKGRLTLTADTSTNTVYMELSSLRSADTAMYYCARGGTSVIRDAMDYWGQGALVTVSS
VL: EIQMTQSPSSLSASPGDRVTITCRASESVDNYGISFMHWYQQKPGQVPKLLIYRASNLESGVPSRFSGSGSGTDFTLTISSLEPEDAATYYCQQSNKDPLTFGQGT
For the molecule B2, in test [2], the Kd (usually the constant that tells how readily two partners part at equilibrium) was 12.6 nM; the off-rate constant (koff) (commonly the rate constant with which the complex falls apart) was 0.000145 s⁻¹; the on-rate constant (kon) (in general, the rate constant with which the complex forms) is 11500 M⁻¹ s⁻¹. In test [3], this molecule gave a Kd of 1.91 nM, a koff of 8.85e-05 s⁻¹ and a kon of 46400 M⁻¹ s⁻¹.

B3: Feline 15H05 1.1 FW1_3 (antibody, V domains shown)
VH: QVLLVQSGAEVRTPGASVKIFCKASGYSFTSYTIHWLRQAPAQGLEWMGNINPTSGYTENNQRFKDRLTLTADTSTNTAYMELSSLRSADTAMYYCARWGFKYDGEWSFDVWGAGTTVTVSS
VL: DIQMNQSPSSLSASLGDTITVTCRASQGISIWLSWYQQKPGKVPKLLIYKASNLHIGVPPRFSGSGSGTHFTLTITSLQPEDIATYYCLQSQTYPLTFGGGTKLEIK
In test [2], B3 came in with a Kd of 0.0674 nM, a koff of 3.02e-05 s⁻¹ and a kon of 448000 M⁻¹ s⁻¹. Also, in test [3], the Kd was found to be 0.00436 nM, the dissociation rate constant (koff) was determined as 2.88e-08 s⁻¹ and the association rate constant (kon) came to 6590 M⁻¹ s⁻¹.

B4: Feline 15H05 1.2 (antibody, V domains shown)
VH: QVLLVQSGAEVRTPGASVKIFCKASGYSFTSYTIHWLRQAPAQGLEWMGNINPTSGYTENNQRFKDRLTLTADTSTNTAYMELSSLRSADTAMYYCARWGFKYDGEWSFDVWGAGTTVTVSS
VL: EITMTQSPGSLAGSPGQQVTMNCRASQGISIWLSWYQQKPGQHPKLLIYKASNLHIGVPDRFSGSGSGTDFTLTISNLQAEDVASYYCLQSQTYPLTFGGGTKLEIK
Turning to B4, in test [2], the Kd was found to be 104 nM, the koff worked out at 0.00147 s⁻¹ and the kon was found to be 14100 M⁻¹ s⁻¹. In test [3], this molecule showed a Kd of 3.48 nM, an off-rate constant (koff) of 0.000115 s⁻¹ and a kon of 33000 M⁻¹ s⁻¹.

B5: Feline 15H05 2.1 (antibody, V domains shown)
VH: QVLLVQSGAEVRTPGASVKIFCKASGYGFTSYTIHWVRQSPAQGLEWMGNINPTSGYTENNQRFKDRLTLTADTSTNTAYMELSSLRSADTAMYYCARWGFKYDGEWSFDVWGAGTTVTVSS
VL: EIQMTQSPSSLSASPGDRVTITCRASQGISIWLSWYQQKPGKVPKLLIYKASNLHIGVPSRFSGSGSGTDFTLTISSLEPEDAATYYCLQSQTYPLTFGGGTKLEIK
With B5, in test [2], the Kd was 22.3 nM, the koff was found to be 0.00465 s⁻¹ and the on-rate constant (kon) is 208000 M⁻¹ s⁻¹. Also, in test [3], the dissociation constant (Kd) stood at 1.65 nM, the dissociation rate constant (koff) came out at 0.000866 s⁻¹ and the kon came out at 525000 M⁻¹ s⁻¹.

B6: Feline 15H05 3.2 (antibody, V domains shown)
VH: QVLLVQSGAEVRKPGASVKIFCKASGYSFTSYTIHWLRQAPEQGLEWMGNINPTSGYTENNQRFKDRLTLTADTSTNTAYMELSSLRSADTAMYYCARWGFKYDGEWSFDVWGAGTTVTVSS
VL: EITMTQSPGSLAGSPGQQVTMNCRASQGISIWLSWYQQKPGQHPKLLIYKASNLHIGVPDRFSGSGSGTDFTLTISNLQAEDVASYYCLQSQTYPLTFGGGTKLEIK
For B6, in test [2], the dissociation constant Kd worked out at 12.6 nM, the dissociation rate constant (koff) amounted to 0.00166 s⁻¹ and the on-rate constant (kon) worked out at 132000 M⁻¹ s⁻¹. In test [3], this molecule displayed a dissociation constant Kd of 0.204 nM, a koff of 6.04e-06 s⁻¹ and a kon of 29700 M⁻¹ s⁻¹.

B7: Feline 15H05 2.2 (antibody, V domains shown)
VH: QVLLVQSGAEVRTPGASVKIFCKASGYGFTSYTIHWVRQSPAQGLEWMGNINPTSGYTENNQRFKDRLTLTADTSTNTAYMELSSLRSADTAMYYCARWGFKYDGEWSFDVWGAGTTVTVSS
VL: EITMTQSPGSLAGSPGQQVTMNCRASQGISIWLSWYQQKPGQHPKLLIYKASNLHIGVPDRFSGSGSGTDFTLTISNLQAEDVASYYCLQSQTYPLTFGGGTKLEIK
As for B7, in test [2], the Kd stood at 2.15 nM, the koff was determined as 0.00195 s⁻¹ and the association rate constant (kon) stood at 905000 M⁻¹ s⁻¹. Further, in test [3], the dissociation constant Kd came to 0.393 nM, the off-rate constant (koff) was found to be 1.09e-05 s⁻¹ and the kon amounted to 27700 M⁻¹ s⁻¹.

B8: Feline 15H05 1.1 (antibody, V domains shown)
VH: QVLLVQSGAEVRTPGASVKIFCKASGYSFTSYTIHWLRQAPAQGLEWMGNINPTSGYTENNQRFKDRLTLTADTSTNTAYMELSSLRSADTAMYYCARWGFKYDGEWSFDVWGAGTTVTVSS
VL: EIQMTQSPSSLSASPGDRVTITCRASQGISIWLSWYQQKPGKVPKLLIYKASNLHIGVPSRFSGSGSGTDFTLTISSLEPEDAATYYCLQSQTYPLTFGGGTKLEIK
In test [2], B8 showed a Kd of 13.5 nM, an off-rate constant (koff) of 0.00131 s⁻¹ and a kon of 97100 M⁻¹ s⁻¹. Also, in test [3], the Kd came to 0.00504 nM, the koff was found to be 1.36e-07 s⁻¹ and the on-rate constant (kon) turned out to be 27000 M⁻¹ s⁻¹.

B9: Feline 15H05 3.1 (antibody, V domains shown)
VH: QVLLVQSGAEVRKPGASVKIFCKASGYSFTSYTIHWLRQAPEQGLEWMGNINPTSGYTENNQRFKDRLTLTADTSTNTAYMELSSLRSADTAMYYCARWGFKYDGEWSFDVWGAGTTVTVSS
VL: EIQMTQSPSSLSASPGDRVTITCRASQGISIWLSWYQQKPGKVPKLLIYKASNLHIGVPSRFSGSGSGTDFTLTISSLEPEDAATYYCLQSQTYPLTFGGGTKLEIK
In test [2], B9 showed an equilibrium dissociation constant (Kd) of 37.1 nM, an off-rate (koff) of 0.00166 s⁻¹ and a kon of 44700 M⁻¹ s⁻¹. In test [3], this molecule gave a Kd of 0.795 nM, a koff of 2.11e-05 s⁻¹ and a kon of 26500 M⁻¹ s⁻¹.

B10: Feline 15H05 1.3 (antibody, V domains shown)
VH: QVLLVQSGAEVRTPGASVKIFCKASGYSFTSYTIHWLRQAPAQGLEWMGNINPTSGYTENNQRFKDRLTLTADTSTNTAYMELSSLRSADTAMYYCARWGFKYDGEWSFDVWGAGTTVTVSS
VL: EVVLTQSSAFLSRTLKEKATITCRASQGISIWLSWYQQKPNQAPKLLVKKASNLHIGAPSRFSGSGSGTDFTLTISSPEPEDAATYYCLQSQTYPLTFGGGTKLGDQ
Consider B10, for which, in test [2], the equilibrium dissociation constant (Kd) was determined as 86.4 nM, the koff was 0.00328 s⁻¹ and the kon stood at 38000 M⁻¹ s⁻¹. In test [3], this molecule returned an equilibrium dissociation constant (Kd) of 6.38 nM, a koff of 0.00019 s⁻¹ and an association rate constant (kon) of 29700 M⁻¹ s⁻¹.
